Measurements as given in patent publication US7067274B2, “Compositions and methods for the screening pro-apoptotic compounds” (Genentech, Inc., priority 2003, dated 2006).

Key:
[1] = test system: MCF7 cells; experiment: Inhibition of doxorubicin-induced apoptosis in transfected MCF7 cells; assay type: cell-based; details: MCF7 cells transiently transfected, doxorubicin 0.5 μg/ml
Protocol: MCF7 cells were transiently transfected with the reporter plasmid pCMV-βgal and either vector control alone or BIR domain constructs. Following transfection, cells were exposed to doxorubicin (adriamycin; 0.5 μg/ml), stained with X-gal and apoptosis assessed by counting live and dead transfected cells. Percentage apoptosis represents the mean value of at least four sample points and is representative of three independent experiments.

[2] = molecular target: wild-type mature Smac protein; experiment: Fluorescence polarization competition assay, mature Smac protein; assay type: binding, human; details: competition with 5 nM Hid-FAM probe, Ki from IC50
Protocol: A PCR product containing amino acids 56–239 of Smac/DIABLO (accession number SMAC_HUMAN) was cloned into the XbaI/XhoI sites of a pet21b+ (Novagen) generating a C-terminal His6 fusion. Pet21bSmac was transformed into Escherichia coli strain BL21(DE3) competent cells (Stratagene). Overnight cultures were diluted 1:100 and grown at 37° C. in LB media with 50 μg/ml carbenicillin to an A600 of 0.8 with vigorous shaking. Isopropyl-β-D-1-thiogalactopyranoside (IPTG) was added to a final concentration of 1 mM and cultures were grown overnight at 16° C. Cell pellets were resuspended in Buffer A (50 mM Tris (pH 8.0), 300 mM NaCl, 0.5 mM PMSF, 2 mM benzamidine, 5 mM β-mercaptoethanol) with 5 mM imidazole and placed on ice for 30 minutes. Cells were homogenized, microfluidized, and centrifuged at 15,000 rpm for 45 minutes. Supernatant was loaded onto a Ni-NTA agarose column (Qiagen™), washed with 10 column volumes Buffer A with 10 mM imidazole, and eluted with 10 column volumes Buffer A with 300 mM imidazole. Fractions containing Smac protein were pooled, concentrated and loaded on a Superdex™ 200 sizing column. Protein eluted over one column volume into 50 mM Tris (pH 7.6), 300 mM NaCl, 0.5 mM PMSF, 2 mM benzamidine and 5 mM DTT. Fractions containing Smac protein were pooled and dialyzed against 3 changes of buffer containing 50 mM Tris (pH 7.6), 0.5 mM PMSF, 2 mM benzamidine and 5 mM DTT. The dialyzed sample was loaded onto a Q-Sepharose™ FF column (Pharmacia) and eluted over a 10 column volume gradient from zero to 1 M NaCl in buffer 50 mM Tris (pH 7.6), 0.5 mM PMSF, 2 mM benzamidine and 5 mM DTT. The cDNA encoding full-length ML-IAP plus a N-terminal His6-tag was cloned into the pET15b(+) expression vector (Novagen). ML-IAP was expressed in E. coli strain BL21(DE3)pLysS. […] The protein concentration of purified proteins was determined from the absorbance at 280 nm based on the molar absorption coefficients calculated from the Edelhoch relationship (Edelhoch, (1967) Biochemistry 6: 1948–1954).
(§1) Samples were read after a 10-minute incubation. Fluorescence polarization values were plotted as a function of the antagonist concentration, and the IC50 values were obtained by fitting the data to a 4-parameter equation using Kaleidagraph™ software (Synergy software; Reading, Pa.). Inhibition constants (Ki) for the antagonists were determined from the IC50 values (Keating et al., (2000) Putting the pieces together: contribution of fluorescence polarization assays to small-molecule lead optimization. Proceedings of SPIE: In-Vitro Diagnostic Instrumentation.).
(§2) The binding affinity of the Hid-FAM probe for each of the BIR domains was determined directly using a fluorescence polarization-based assay and the result is shown graphically in FIG. 8.

[3] = molecular target: Hid-FAM (5-carboxyflourescein-conjugated AVPFAK(5-FAM)K); experiment: Fluorescence polarization affinity measurement with Hid-FAM probe; assay type: binding; details: 5 nM Hid-FAM, apparent Kd from EC50
Protocol: Polarization experiments were performed on an Analyst™ HT 96-384 (Molecular Devices Corp.). […] The reactions were read after an incubation time of 10 minutes at room temperature with standard cut-off filters for the fluorescein fluorophore (λex=485 nm; λem=530 nm) in 96-well black HE96 plates (Molecular Devices Corp.). Fluorescence polarization values were plotted as a function of the protein concentration, and the EC50 values were obtained by fitting the data to a 4-parameter equation using Kaleidagraph™ software (Synergy software, Reading, Pa.). The apparent Kd values were determined from the EC50 values.
as §2

[4] = molecular target: Smac-9mer peptide (AVPIAQKSE); experiment: Fluorescence polarization competition assay, Smac-9mer peptide; assay type: binding; details: competition with 5 nM Hid-FAM probe, Ki from IC50
Protocol: as §1

[5] = molecular target: T1, ΔCARD human caspase 9 (Homo sapiens, UniProt P55211, D305A/E304A/E306A); experiment: Determination of caspase-9 inhibitory constants (Ac-LEHD-AFC hydrolysis); assay type: biochemical; details: 300 nM ΔCARD caspase 9, 100 μM Ac-LEHD-AFC, 37° C.; read-out: Caspase-9 inhibition Ki(app)
T1 construct: made in house
T1 sequence (P55211 139-315 E304A/D305A/E306A limits assumed): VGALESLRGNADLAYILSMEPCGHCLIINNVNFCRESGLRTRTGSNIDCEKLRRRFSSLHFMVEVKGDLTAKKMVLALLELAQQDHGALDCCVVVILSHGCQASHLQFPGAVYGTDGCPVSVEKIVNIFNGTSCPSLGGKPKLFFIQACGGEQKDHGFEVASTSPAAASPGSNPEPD
T1 sequence (P55211 316-416 limits assumed): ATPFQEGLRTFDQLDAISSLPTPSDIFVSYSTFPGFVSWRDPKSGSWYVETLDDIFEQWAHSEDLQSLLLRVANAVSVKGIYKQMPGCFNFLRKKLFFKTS
Protocol: ΔCARD (caspase recruitment domain) human caspase 9 (lacking the first 138 residues) with Ala substitutions at residues 304 to 306 was produced as described previously (Boatright et al., (2003) Mol Cell 11: 529–541). The third BIR of […] (residues 252–348) was also prepared as described previously (Sun et al., (2000) J Biol Chem 275(43): 33777–81).
Determination of Caspase-9 Inhibitory Constants: Recombinant ΔCARD caspase 9 (300 nM final concentration in the assay) was preactivated in salt-free caspase buffer (20 mM PIPES, 10 mM EDTA, 0.1% CHAPS and 10% (w/v) sucrose, pH 7.2) for 15 min at 37° C. Following this, a range of inhibitor concentrations were preincubated with the enzyme for 20 min at 37° C. The assay was started by the addition of Ac-LEHD-AFC (100 μM final concentration) and measured kinetically for 30 min using an fmax Fluorescence Plate Reader (Molecular Devices) at an excitation wavelength of 405 nm and an emission wavelength of 510 nm. Reaction mixtures were thermostatically controlled at 37° C. The individual Ki values for the inhibitors [I] were determined from the uninhibited substrate hydrolysis rate (vo) and the inhibited rates (vi), so that a plot of (vo/vi)−1 against [I] gives Ki(app), the equilibrium inhibition constant in the presence of substrate (Salvesen and Nagase, (1989) Proteolytic enzymes: A practical approach. R. J. Beynon and J. S. Bond. Oxford, IRL Press: 83–104).

[6] = molecular target: T2, caspase-9 (Homo sapiens, UniProt P55211); experiment: Caspase-9 co-immunoprecipitation in transfected 293T cells; assay type: cell-based; details: Flag-tagged BIR domain proteins, IP anti-Flag
T2 construct: expressed in transfected cells; host or cells: 293T cells
T2 sequence (P55211 1-315 limits assumed): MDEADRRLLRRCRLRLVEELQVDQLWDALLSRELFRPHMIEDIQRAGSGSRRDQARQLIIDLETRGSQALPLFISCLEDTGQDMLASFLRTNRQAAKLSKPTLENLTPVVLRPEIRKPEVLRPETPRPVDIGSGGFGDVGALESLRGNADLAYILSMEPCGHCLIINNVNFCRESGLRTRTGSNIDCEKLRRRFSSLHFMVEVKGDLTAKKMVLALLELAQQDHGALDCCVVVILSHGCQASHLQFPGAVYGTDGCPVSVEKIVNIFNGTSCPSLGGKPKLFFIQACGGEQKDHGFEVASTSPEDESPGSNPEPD
T2 sequence (P55211 331-416 limits assumed): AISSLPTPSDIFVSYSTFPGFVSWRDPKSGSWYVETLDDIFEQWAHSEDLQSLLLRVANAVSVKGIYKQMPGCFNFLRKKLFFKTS
Protocol: 293T cells were transiently transfected with caspase-9 and Flag-tagged BIR domain proteins or vector. After 40 h, cells were lysed in NP40 lysis buffer (120 mM Tris, 150 mM NaCl, 1% NP-40, 1 mM DTT and protease inhibitor cocktail) and lysates immunoprecipitated (IP) with anti-Flag antibody. Samples were then Western blotted with anti-caspase-9 and anti-Flag antibodies. […] When overexpressed, caspase-9 undergoes autocatalytic processing and it is the processed form that physically interacts with XIAP and ML-IAP BIR domains.

B1: ML-IAP-BIR: wild-type ML-IAP BIR domain construct, amino acids 63–179 of accession number BIR7_HUMAN (protein)
chain: TEEEEEEGAGATLSRGPAFPGMGSEELRLASFYDWPLTAEVPPELLAAAGFFHTGHQDKVRCFFCYGGLQSWKRGDDPWTEHAKWFPSCQFLLRSKGRDFVHSVQETHSQLLGSWDP
modifications: left off: small tags and cut ends
Q: With B1 as the molecule, how does the “inhibition of doxorubicin-induced apoptosis” value [1] read?
A: Its value is “confers resistance”.

Q: What about the Ki [2] of the same molecule?
A: The Ki was 26 nM.

Q: And the Kd [3]?
A: Its Kd is 21 nM.

Q: And the Ki [4]?
A: The Ki was 200 nM.

Q: What about the Ki [5] of the same molecule?
A: The Ki was 3200 nM.

Q: And the “caspase-9 binding efficiency (co-immunoprecipitation, Western blot)” value [6]?
A: Its value is “co-imnunoprecipitates processed caspase-9”.
